B1: His-SUMO-Cdc6 (natural protein)
chain: MSAIPITPTKRIRRNLFDDAPATPPRPLKRKKLQFTDVTPESSPEKLQFGSQSIFLRTKALLQKSSELVNLNSSDGALPARTAEYEQVMNFLAKAISEHRSDSLYITGPPGTGKTAQLDMIIRQKFQSLPLSLSTPRSKDVLRHTNPNLQNLSWFELPDGRLESVAVTSINCISLGEPSSIFQKIFDSFQDLNGPTLQIKNMQHLQKFLEPYHKKTTFVVVLDEMDRLLHANTSETQSVRTILELFLLAKLPTVSFVLIGMANSLDMKDRFLSRLNLDRGLLPQTIVFQPYTAEQMYEIVIQKMSSLPTIIFQPMAIKFAAKKCAGNTGDLRKLFDVLRGSIEIYELEKRFLLSPTRGSLNSAQVPLTPTTSPVKKSYPEPQGKIGLNYIAKVFSKFVNNNSTRTRIAKLNIQQKLILCTIIQSLKLNSDATIDESFDHYIKAITKTDTLAPLQRNEFLEICTILETCGLVSIKKTKCKGKTKRFVDKIDVDLDMREFYDEMTKISILKPFLH
B2: GST-Orc2N200-I194E (domain or fragment)
chain: MLNGEDFVEHNDILSSPAKSRNVTPKRVDPHGERQLRRIHSSKKNLLERISLVGNERKNTSPDPALKPKTPSKAPRKRGRPRKIQEELTDRIKKDEKDTISSKKKRKLDKDTSGNVNEESKTSNNKQVMEKTGIKEKREREKIQVATTTYEDNVTPQTDDNFVSNSPEPPEPATPSKKSLTTNHDFTSPLKQIEMNNLKE

Columns and labels:
[1] = target: origin recognition complex (ORC), wild type (S. cerevisiae, UniProt P54784;P32833;P54790;P54791;P50874;P38826); test: MCM loading assay on DNA beads
[2] = target: Orc2-I194E containing ORC (S. cerevisiae, UniProt P54784;P32833;P54790;P54791;P50874;P38826, I194E); test: MCM loading assay on DNA beads
[3] = target: Orc2-ΔN175 containing ORC (S. cerevisiae, UniProt P54784;P32833;P54790;P54791;P50874;P38826); test: MCM loading assay on DNA beads
[4] = target: Orc2-ΔN200 containing ORC (S. cerevisiae, UniProt P54784;P32833;P54790;P54791;P50874;P38826); test: MCM loading assay on DNA beads
[5] = target: Cdt1-Mcm2-7 heptamer (S. cerevisiae, UniProt P47112;P29469;P24279;P30665;P29496;P53091;P38132); test: pull-down

Row | Binder | binding result [1] | binding result [2] | binding result [3] | binding result [4] | binding result [5]
1 | B1 | binds | binds | binds | binds | –
2 | B2 | – | – | – | – | binds
